Experimental data from the DeepSol protein solubility set.

Experiment: soluble on expression in E. coli; label from the status in PepcDB or PDB records

Sequence	soluble on expression in E. coli
MEKYSQVIFDKNTVEFVTVAAEFCGFLERARDMKRYDFVDTALKILPLLYLKATLLPPCEPIGEDEPETFVTEEDYELIRRAIAGVLGAKDDYLEVFLPDMVYSDTPIKKCISEDLADIYQDLKDFISVFQLGLNETMNDSLVVCKEHFREFWGQRLVNTMRALHDVKYSPADDGEEEEMEDENSLLLEHHHHHH	soluble
MRGSHHHHHHGMASHITYDLPVAIEDILEAKKRLAGKIYKTGMPRSNYFSERCKGEIFLKFENMQRTGSFKIRGAFNKLSSLTEAEKRKGVVACSAGNHAQGVSLSCAMLGIDGKVVMPKGAPKSKVAATCDYSAEVVLHGDNFNDTIAKVSEIVETEGRIFIPPYDDPKVIAGQGTIGLEIMEDLYDVDNVIVPIGGGGLIAGIAIAIKSINPTIKVIGVQAENVHGMAASYYTGEITTHRTTGTLADGCDVSRPGNLTYEIVRELVDDIVLVSEDEIRNSMIALIQRNKVITEGAGALACAALLSGKLDSHIQNRKTVSIISGGNIDLSRVSQITGLVDA	soluble
MCMAQRLNVNPTRMELSKLKKRLATATRGHKLLKDKQDELMRQFINLIKYNNQLRDEVEKELGSSLKDFVMARAVMSSEFLEEAIAYPKEEIEVEVGNKNIMSVNVPIMNFKRKLEGDEGSIYPYGFMNTSAELDDAISKLYGILPKLLELAEVEKSGQLMADEIEKTRRRVNALEYMTIPQLKETIRYIRMKLDENERSALTRLMKVKSMIEQRGLEHHHHHH	not soluble
MDSKLIGKICKSIRYRDYETAIFLAACLLPCKPEYRMLMSIVLYLNGEYTRALFHLHKLNTCTSKYYESLCYKKKKDYKKAIKSLESILEGKVERDPDVDARIQEMFVDPGDEEFFESLLGDLCTLSGYREEGIGHYVRSFGKSFLFSPVENLLLENKVPQKRDKENVRQTGRRGIEEEYVSDSIEFHESLSPSLVKKYMEHVPGIGSYFISNAARRYFNLGMNDKSKACFELVRRKDPMFL	soluble
MGSDKIHHHHHHMNVSIRLPRFEFDDKILEQGAEISRRLNQLRMEKFPPNATKTLRTFSMAEVAHYLGVSQNNLKRLHLEGKGPLPDQSPSGRRSYTATQMLELRQFLDQHGRTEVKKYVPHRKLGDKLQVVAVVNFKGGSGKTTTAAHLAQHLALTGHRVLAIDLDPQASLSALHGFQPELDRNLSLYEAIRYDDERRSIADVIIPTNFPGLDIIPANLELQEYEYDTPLAMQDKTSSAGRQFFTRMAKALSEVDDRYDVVVVDCPPQLGYLTLTAMSAATSVLITVHPQMLDLMSMSQFLLMLGGILKTIKAAGAAIELDWFRYLITRYEPTDIPQAQMVGFMQSMLAGQILENPMLKSTAISDAGLTKQTLYEVEKSAFTRSTYDRALESLDAVNAEIVTLIHRAWGRS	not soluble
MASAHQTPADANGGESRDEILRAAAELFMEFGYAATSIDAVAQRLGSTKGRIYHHYRSKADLFFDVQVTAMNRLTAQVEPLAREGGGAVGRLAAMALRHTQILLKEMPMQKVAVQGLERHLLEASSAAKRLRAVVKMRDDYEQMFVEVIDDGIREGSFVDLPPRLLSKPFFGALNWATVWYSQRRLQSEEAIDDIAHALAAYALRGLLKDSNDEAARETALFRYDLG	not soluble
MLASRRLLPQISSRALSTSPALKSSEISVKEERPYVYNVKLNRPAKLNTFTMDMWREFKKAIDSLADDPKCRSIIISGEGKAFCAGIDIAHGLSDILRIIQDDTIEVGRKGRLVRKFIGEIQDCYTALERCPKPIIASIHSHCLGAGIDLITACDIRVASQDAIFSIREVDVGLAADIGTLNRIQKVVGNDSWTRDVAFTARDFGADEALRFGLISRIYDDRQSLLENSIDMAARIAEKSPIAVQGTKETLNYAREHSTDDSLNFIKTWNMSQLLSTDLLSSAMAVMNKKKATYEDV	not soluble
MSLRHSGAPLSPRNVCPMKTIAPCMAAMMLLSGCNGVPTSYVSDPVYSQAFVVTSGAPLPMLLMASAIQWNEDYAVTAKHTPFLRNVVHEGLGDVVFFKHKASSVPHWRQYVPGEAVTAVGFNSFMMPMQGKGHALSSLVRLEGTPGSVFYSVHDGPITKGMSGGPVFADDGKVVGINVAIIPTDEINAGKRPDLVGKDRISVFMSFSEIDKEWRRYQYLLAHKAKPKAPAAVKGYVAVAAKEGHHHHHH	not soluble
MRAPFISSLVKTLVHTDYDTSTGEVRSRRATGFVVGLTGEWGLGKSSVLNLLEHDLKQMEHVAVATLNPWLFKGRDEVVEAYFNALREALGFSSSEKARKLLVHLARYKASIEFVGATTAVVIDFVVGTGSATAIWKKWVLKVVRFLSKSRGLSANEERKNLEAKLAEAKIAIVMLIDELDRVEDEEVRVVAQLVKAVGDIKGISYLVAYDPSRVAQALGKGSTPEEKQKAGESYLEKIIQFPIPLRPLFMDEARDLLLQAMRNNDVTMPAESQSYQTEILNQLLRVIRTPREIKRLIGAFAVLEEIVRGLEHHHHHH	soluble
SVCAAQNCQRPCKDKVDWVQCDGGCDEWFHQVCVGVSPEMAENEDYICINCA	soluble
PQQRRDIRFVWSGDTVGQGFGINPDIGGMRIYEAMRLRLPDFFIHSGDTIYADGPVPAQITAEGGRIWRNITTEAKSKVAETLDEYRGNYRYNLMDENLRRFNAEVPQIWQWDDHEVTNNWSPSKQLDDRYKVKDIQLLSSRARQAYLEYAPLRLQEADKGGRIYRKIPYGPMLDVFVLDMRSYRDGNDANLADKPGPTTAFMGCEQLDWLKRELDASTAQWKVIAADMPIGLGVPDGEVSPGVPRWEAIANGNDGPALGRELEIAELLAYLRAQKVRDCVWLTADVHYCAAHHYQPDLAVFQDFDPFWEFVAGPLNASSFGPNVLDKTFGPELVFQKAPPAQNTSPFAGYQFFGEVNIDGQTGEMSVALRDLDGVSVFERKLQP	not soluble
MIIKRNDMAPSVKAGDAILFYRLSQTYKVEEAVVYEDSKTSITKVGRIIAQAGDEVDLTEQGELKINGHIQNEGLTFIKSREANYPYRIADNSYLILNDYYSQESENYLQDAIAKDAIKGTINTLIRLRNH	not soluble
SGTQALLVEERARLERLLGARLEAAADQALARLVEANPQPVHLICDLTHRLLACSPARAAQFGVPLGELLDRSLWPYCSEEILRQEATLEELGWRELLAPPALEFASGANASAIVPIRRSRCRWTRMTLSDGRAVRLVETL	not soluble
ALENLQVEASCSVCLEYLKEPVIIECGHNFCKACITRWWEDLERDFPCPVC	soluble
GKPFSYGASFNLTFARNRYLRYPDSPNTVEWRKRTGRSVDASVVWVAEGLFRSEEEIDNSAWYGTRPNVGDIKYKDLNGDGKIDEDDRTRVGRGNRPELTYGLNLNCAWNGFDLSAQFTGGALFDVSLTGTYYNGYDDNTVWTQAFKEGANSPLYLVQNAYTTENPNGTFPRLTLGNQGHGGDNGLASTFWLRNGRYLRLKSAQLGYTFPKKWMSPVGIQNLRIYVEGSNLFTISGLPDGIDPESPGVNNGYYPQQRTIMGGITLTF	not soluble
MSLDYAQRAVQVDPPRRLTHEMDSWARNFVMLRTDVQGRPINRLEGVYVEHFPDDDSYHVTTPRAIGQQAGNPITIGVSKTAIMEQGGQRIVMNGDAHVHRQPDARNETLDVRSQQLILLPDDDVVFTDLPAQVNKGNSRMNGTGMHYNNKTRQLRVSAAADVEIAGTEGRKRQSTETPANSNQNKPEGHHHHHH	soluble
MSLDKPVIQIHTDNSSLIFRVADNGRLYQSYLGKKLNHEADISHLPQGTEAYITHGMEDYFEPAIHILHNDGNPSLLLKYVSHETKAVSQGVNETIITLGDDKYPVTVKLHYVTYPAEDIIKTYTEISHKEKKPVVLHQYASSMLHLNRAKYYLTEFSGDWAHEANISDQPLEFGKKVLDTKLGARANMFTPPFFQLSLDQLATENCGEVLVGTLGWTGNFRFTFEVDNKNELRIISGINPYASEYYLPAGVVFRTPDFYFTYSANGKGKASRNFHDWARRYQLKDGDETRMTLLNNWEATYFDFNEEKLIGLIGDAAGLGVDMFLLDDGWFANKYPRSSDHQGLGDWDETADKLPNGIGRLVEEATKKGIKFGLWIEPEMVNPKSELYEKHKDWVIHLPNRDEYYFRNQLVLDLSNPKVQDFVFGVVDDLMTKYPGIAFFKWDCNSPITNIYSSYLKEKQSHLYIDYVRGLYNVLERIKTKYPDLPMMLCSGGSGRIDYETLRYFTEFWPSDNTDPIERLFIQWGYSQLFPAKTLCAHVTTWNHDASIKFRTDVAMMGKLGFDIKLSDLNDNEKKFCRDAVTNYNHLKPVVLEGDMYRLVSPYSGNHTSTQYVGKDKKGAVVFAFDIYSRYGEKLLPVRLQGLDAGRQYRVKEINLMPGTNSSLQGNGELFSGEYLMTVGLNIFTGQRLNSRVIEVVAEEGHHPITTDPNSSSVDKLAAALEHHHHHH	soluble
MWFIMMDTKDPPTLLDLATQNLLSNEHAAIQALEEIPRELFVPLFTAAFTGRHKNILTAIVKAWPFACLHIGALSVQEPERELLKALIESLQFLLALNSATRSPKLRILDLRQDAGCKTVCPEISTNSTICFRSCAHSEHSIFKIEGQESLSSSKSEAQPSRLPMELIVDISLDGTLRERNFFALLQNKVEQSLGSLHLCCRDLQINNLCECRHALSHLDLKCVDHLAVDESPLTEVTKLLSHTIQLDSLSLSKIACRSLNGRTFRNFITQLSRMNHLKELSLSSFCLTDHLENVLRVLSADLEFLYLPFCGLSYSDFKFLSECSQVSHLKLLNVNNNPIYWEDCEPFYYLLQNVSSTLQHLKICYCFLTDSTISVLIPALTRCSQLRVLHFYSNQITMGMLMRILELLTPLKELKHVIYPIPVHCYGRWHFQGSLDRQKVEDVQRQLNLMLQEAERSDMNWITYSD	not soluble
MGSDKIHHHHHHLEKAALILEGGALRSFFTSAVLDYFLEKQMDFEYIHGVSAGTMAAMNYISKQKRRSADVNLHFLHDKRYIGFNNLIRNGGIFNLDFLFSPECYDYSPFDYKAYNESKQIFEITATNVLTGKADIFRKTDTDGQEEAVKASASMPLVSDIRVVNHQPYLDGGIADSIPFRRAQELGYEKIVVVLTRDISYRKPENSRAMNRLVKFRYRDFPRFVQAFADRPQQYNRSLAEIERLEREGKIFVIRPQEPVSVSRVERDDKKLMALYEKGTEVIQNQFADLQKYLAQ	not soluble
MSLAKASAESLGGTVASEESIASYIGAGILSSGGNAVDAAVATSLALTVLIPHLGGVGGDFFMLYRSPEGRVFFVNGSGFAPRRLTREEVLGRGLQEIPESGPLSPTTPGYLAGLYHSWRSFGTMEWASLVKPARLLASRGFPLPPSTARSLKLRRECLEADPGSREAVLKTLPREEGSPARLPGLAALLSGVEEDPLYLYQGEPAEALEEYLASIGGVMGAEDLAGTRGFTAEPLYSEYRGWKVWEMPPNTQGVTTLHLLMLLEEEELPEPFSPERVDILAGLARMAYSIRDRYVGDPRYMPIDPHELARKETLLKLLGQEESNGSKATGDTTFFAVADREGGIVAGIQSLFYPWGSCVTEPRFQVTLNNRARGFTLKEGLPSTLRPGAFPLHTLSSVIMEQRERVIALGASGGHLRPQQHALFVTNIVDYGMNVLDAINAPRAVWDPGRGEILCEEGFGCRPSWRKVERIGVANAVEVAGSVKRGYTDMRGDGLPAVEGHHHHHH	not soluble
AIAFQPVTQKRLTNVSVVRMRKGGKRFEIACYPNMVMAYREGHVRDLDEVIQVEDVFENVSKGKLAANADLERCFGTRDRHAVLLQILLHGDLQVSDRERQYQSTRKLHEIASVVAAKTISRETKKPLPVGLIEKALREIHFAVQPNRPAKAQALEVIPLLRAQSGLDLERARLRLRIHVPSQRDAKAVKARLEPLQQGETDGTHSSSRSDSVRMKDGSAAVESESEEWLPGGALLWTVQADPGAFREIEEIVQRETNQQGIVEVASLRVLDDEDESILS	soluble
